Molecular target: the molecule itself
Assay: gel filtration and sedimentation velocity (self-association)

B1: H10-LOV543m3-WH1 (other)
chain: MGSSHHHHHHHHHHSSGLVPRGSLATTLERIEKNFVITDPRLPDNPIIFASDSFLQLTEYSREEILGRNCRFLQGPETDRATVRKIRDAIDNQTEVTVQLINYTKSGKKFWNLFHLQPMRDQKGDVQYFIGVQLDGTEHVRDAAEREAVMEAKKTAENIDEAAKLIESSHTLTLNEKRLVLCAASLIDSRKPLPKDGYLTIRADTFAEVFGIDVKHAYAALDDAATKLFNRDIRRYVKGKVVERMRWVFHVKYREGQGCVELGFSPTIIPHLTMLHKEFTSYQLK
notes: Chimera of Avena sativa LOV2 (G528A, L531E, I532A) and wild-type RepA-WH1; carries the FMN chromophore; Dimer in solution; also called LOV2m3-WH1; LOV543-WH1m3; not shown: N-terminal His10 tag peptide
- binding result: binds
